Results reported in patent US20210009993A1 (ROCHE DIAGNOSTICS OPERATIONS, published 2021).
Where a chain is given by its changes, count along the chain named. In names and notes the source's numbering stands. Blank lines part the entries; values can stand above or below the binder they belong to.

Target: T1, human cardiac troponin T (cTnT) (human, UniProt P45379 2-298)
T1 construct: also called Recombinant human TnT (Roche, 37 kDa)
Experiment: SPR, Biacore T200, 37 C; Fab captured via anti-human F(ab')2, cTnT analyte
Procedure: Detailed kinetic investigations were performed at 37° C. on a GE Healthcare T200 instrument. A Biacore CM-5 series S sensor was mounted into the instrument and was preconditioned according to the manufacturer's instructions. The system buffer was HBS-ET (10 mM HEPES (pH 7.4), 150 mM NaCl, 1 mM EDTA, 0.05% (w/v) Tween® 20). The sample buffer was the system buffer supplemented with 1 mg/ml CMD (Carboxymethyldextran, Fluka). In one embodiment an anti-human antibody capture system was established on the CMS biosensor. GAHF(ab′)2, (goat anti human F(ab′)2) (Code Nr.: 109-005-097, lot #13.12.2005, Jackson Immuno Research) was immobilized according to the manufacturer's instructions using NHS/EDC chemistry. 30 μg/ml GAHF(ab′)2 in 10 mM sodium acetate buffer (pH 5.0) were preconcentrated to the flow cells 1, 2, 3 and 4 and were immobilized with 10.000 RU GAHF(ab′)2. The sensor was subsequently saturated with 1 M ethanolamine pH 8.5.
Chimeric anti-TnT antibody fragments were periplasmatically expressed in E. coli cells as described and were lyzed by methods known (for technical details see: Andersen, D. C. & Reilly, D. E. (2004); Production technologies for monoclonal antibodies and their fragments. Curr Opin Biotechnol 15, 456-62). The lysates were diluted 1:20 in sample buffer. Fab fragments were captured via their humanized framework regions from the expression lysates on the biosensor at a flow rate of 10 μl/min for 1 min followed by a 2 min washing step with 10-fold concentrated HBS-EP buffer at 30 μl/min. The Fab fragment capture level (CL) in response units (RU) was monitored. Recombinant human TnT (Roche, 37 kDa) was diluted in sample buffer at 90 nM and a concentration series was produced with […], 30 nM, 11 nM, 3.3 nM, 1.1 nM, 0 nM, 3.3 nM TnT concentration. The analyte concentration series were 80 μl/min for 3 min association phase and the dissociation phase was monitored for 3 min.
The kinetic parameters ka [1/Ms], kd [1/s], t1/2 diss [min], KD [M] and the binding stoichiometry (Molar Ratio) (for details see: Schraeml, M. & Biehl, M. (2012); Kinetic screening in the antibody development process. Methods Mol Biol 901, 171-81.) of the cTnT analyte were determined for each Fab fragment mutant with the Biaevaluation Software (GE healthcare) according to the manufacturer's instructions.

Kd: 0.61 nM
B1: anti-cTnT Fab fragment, CDR combination 1 (Y34F) (Fab, V domains shown)
VH: EVQLQQSGPELVKPGASVKMSCKASGYTFTDYFMKWVKQSHGKSLEWIGDINPNNGETFYNQKFKDKATLTVDKSSSTAYMQLNSLTSEDSAVYYCATRVFDYWGQGTTLTVSS
VL: DIVLTQSPASLAVSLGQRATISCKASQSVDYDGTSYMNWFQQKAGQPPKRLIYAASNLESGIPARFSGRGSGTDFALNIHPVEEEDAATYYCQQSNEDPYTFGGGTKLEIKR
notes: tested from E. coli lysate; also called mutant 1

t/2-diss: 3 min
B2: anti-cTnT Fab fragment, CDR combination 21 (F60W, V101Y) (Fab, V domains shown)
VH: B1 VH with F33Y, F59W, V100Y
VL: B1 VL
notes: tested from E. coli lysate; also called mutant 21

MR (Molar Ratio): 0.6
B3: anti-cTnT Fab fragment, CDR combination 9 (Y34I) (Fab, V domains shown)
VH: B1 VH with F33I
VL: B1 VL
notes: tested from E. coli lysate; also called mutant 9

Kd: 0.48 nM
B4: anti-cTnT Fab fragment, CDR combination 19 (Y104F) (Fab, V domains shown)
VH: B1 VH with F33Y, Y103F
VL: B1 VL
notes: tested from E. coli lysate; also called mutant 19
